Data reported in publication PMC8364233.

B1: CLE-RS2pro (dsDNA)
DNA 1: TGAGTTCTGACCCTTAAGCCTTGGAAAGGACAGTCATG
DNA 2: CATGACTGTCCTTTCCAAGGCTTAAGGGTCAGAACTCA
B2: LjNF-YBpro (dsDNA)
DNA 1: TTTACTTGTATCTTTAGAGCTTTCCAAGGGATATTTCA
DNA 2: TGAAATATCCCTTGGAAAGCTCTAAAGATACAAGTAAA
B3: LjNIR1pro (dsDNA)
DNA 1: CAAACACGACCCTTTGTCACAACCAAAGGTCCATTGTA
DNA 2: TACAATGGACCTTTGGTTGTGACAAAGGGTCGTGTTTG

Columns and labels:
[1] = target: MBP-LjNLP4 (564–976) (Lotus japonicus); test: SEC-MALS
[2] = target: MBP-LjNIN (551–878) (Lotus japonicus); test: SEC-MALS
[3] = target: MBP-LjNLP4 (564-976) (Lotus japonicus, UniProt A0A2Z5V8A6 564-976); test: EMSA
[4] = target: MBP-LjNIN (551-878) (Lotus japonicus, UniProt Q9S7B1 551-878); test: EMSA
[5] = target: MBP-LjNLP4 (564-976);Trx-His-LjNIN (551-878) (Lotus japonicus;Lotus japonicus, UniProt A0A2Z5V8A6;Q9S7B1 564-976;551-878, |); test: EMSA

| Molecule | stoichiometry N [1] | stoichiometry N [2] | binding result [3] | binding result [4] | binding result [5] |
| --- | --- | --- | --- | --- | --- |
| MBP-LjNLP4 (564–976) (domain or fragment) | 2 |  |  |  |  |
| MBP-LjNIN (551–878) (domain or fragment) |  | 2 |  |  |  |
| B1 |  |  | binds | binds |  |
| B2 |  |  | no binding | binds | binds |
| B3 |  |  | binds | binds |  |
